Data on 4 molecules can be found in patent US20150183856A1 (ABLBIO, published 2015).

In assay [1] the target is T1, human DLL4 stably expressed on HEK 293 cells (human, UniProt Q9NR61 27-685).
T1 construct: whole, on cells; also called human DLL4 antigen
The assay can be described thus: flow cytometry on HEK293 cells stably expressing human DLL4, 10 ug antibody. Here is the method:
Specifically, human embryonic kidney cells (HEK 293) that stably express human DLL4 were prepared, and the degree of binding of the anti-DLL4 antibodies to DLL4 was measured using the prepared cells and a FACSCalibur system (BD Biosciences). The HEK293 cells that stably expressed DLL4 were dissociated, washed with PBS, adjusted to a cell number of 1×10⁵ cells/200 μl PBS, treated with 10 μg of each of the DLL4 monoclonal antibodies, and then allowed to react at room temperature for 30 minutes. After the reaction, the cells were washed with PBS and reacted with an FITC-labeled Fc-specific antibody (goat anti-human IgG FITC conjugate, Fc specific, Sigma, F9512; concentration: 2.0 mg/ml) at a concentration of 5 μl/1×10⁵ cells/200 μl PBS at 4° C. for 1 hours. After the reaction, the cells were washed with PBS and analyzed using a FACSCalibur system. A control group was treated only with an FITC-labeled Fc-specific antibody. The results of analysis of human DLL4-minoclonal antibody-FITC binding in the test group treated with each of the DLL4 monoclonal antibodies were compared with those in the control group.

Assay [2] addresses T2, human DLL4 extracellular domain protein, His-tagged (R&D System Cat: 1506-D4/CF) (human, UniProt Q9NR61 27-522).
T2 construct: range 27-522; Bought protein; also called hDLL4-His; human DLL4-His; not shown: C-terminal histidine tag
The assay is described as follows: SPR (Biacore T200), hDLL4 immobilised on a CM5 chip, antibody as analyte; the table says 'Bivalent binding'. The procedure: To be specific, Biacore T200 was used in SPR analysis and HBS-EP (10 mM HEPES, pH7.4, 150 mM NaCl, 3 mM EDTA, 0.15% surfactant P20) was used as a running buffer. Surface preparation was done by using a surface preparation target immobilization tool of a wizard program (condition: 25° C., 5 μl/min). A ligand, hDLL4, was diluted in 10 mM sodium acetate (pH 4.5) to a final concentration of 10 μg/ml, and then immobilized to the surface of CM5 chip by a target immobilization level for each test group. In the immobilization process, two flow cells were included as one set wherein the first flow cell was set as a blank and the second flow cell has hDLL4 immobilized to the surface thereof in the present experiment. The first flow cell acted as a reference to account for experimental variability due to nonspecific bindings and buffer effects, and in the analysis, subtracted RU values (Fc2-Fc1) were used as experimental results. Anti-DLL4 antibodies that bind to hDLL4, i.e., MLCK1, MLCK2, MLCK-3, and MLCK4, were diluted in a running buffer to a final molar concentration of 100 nM, serially diluted 5 times, and each of the 5 dilutions was analyzed. The sample to be analyzed was prepared to have high purity and high concentration, enough to be diluted more than 100 times at minimum, thereby minimizing buffer effect. All analysis was done by using a wizard program, screening duplicates for each sample and a regeneration step was included in between each analysis step, so that the standard of experiment remains constant. The experimental results were analyzed by Biaevaluation software version 4.0. At this time, to determine the RU values (Fc2-Fc1 and Fc4-Fc3), the baseline was set to zero, the value measured at a buffer injection part (analyte, 0 nM) was subtracted from a whole sensorgram. […] The factors to be analyzed include kₐ(M⁻¹s⁻¹), kd(s⁻¹), Kₐ(1/M), and KD(M). […] Equilibrium dissociation constant KD(M) was calculated by dividing kd with kₐ (kd/kₐ).

Assay [3] concerns the target T2, human DLL4 extracellular domain …. The assay can be described thus: ELISA, plate coated with hDLL4-His 2 ug/ml, bound antibody detected with HRP-conjugated anti-Fab. The procedure:
The anti-DLL4 antibody-antigen binding affinity was evaluated using an ELISA-based binding test. A 96-well microtiter plate (Nunc-Immuno Plate, NUNC, Rochester, N.Y.) was coated with 2 μg/ml of hDLL4-His protein in PBS solution at 4° C. overnight, and non-specific binding sites were blocked with BSA (bovine serum albumin) for 2 hours. The anti-DLL4 antibody (purified protein) on the 96-well microtiter plate was transferred to a microtiter plate at an antibody concentration ranging from 0 nM to 128 nM. Then, the plate was incubated for 2 hours, after which the plate was washed five times with 0.05% tween 20-containing PBS, and in order to detect the plate-bound DLL4 antibody, an HRP-conjugated Fab polyclonal antibody reagent (Pierce) was diluted at a ratio of 1:10,000, transferred to the washed microtiter plate, and then allowed to react at 37° C. for 1 hour. After the reaction, color development was performed using a colorimetric substrate (3,3′,5,5′-tetramethylbenzidine; Sigma-Aldrich Co.). The enzymatic reaction was stopped using 0.5 mol/l of sulfuric acid, and the absorbance at 450 nm-650 nm was recorded using a microplate reader (molecular device). As a result, it was shown that the binding affinities of the antibodies for DLL4 increased in a concentration-dependent manner (FIG. 2).

Assay [4] has the same target. The assay is described as follows: SPR (Biacore T200), hDLL4 immobilized on CM5 chip, antibody as analyte, 1:1 model. The procedure: To be specific, Biacore T200 was used in SPR analysis and HBS-EP (10 mM HEPES, pH7.4, 150 mM NaCl, 3 mM EDTA, 0.15% surfactant P20) was used as a running buffer. Surface preparation was done by using a surface preparation target immobilization tool of a wizard program (condition: 25° C., 5 μl/min). A ligand, hDLL4, was diluted in 10 mM sodium acetate (pH 4.5) to a final concentration of 10 μg/ml, and then immobilized to the surface of CM5 chip by a target immobilization level for each test group. In the immobilization process, two flow cells were included as one set wherein the first flow cell was set as a blank and the second flow cell has hDLL4 immobilized to the surface thereof in the present experiment. The first flow cell acted as a reference to account for experimental variability due to nonspecific bindings and buffer effects, and in the analysis, subtracted RU values (Fc2-Fc1) were used as experimental results. Anti-DLL4 antibodies that bind to hDLL4, i.e., MLCK1, MLCK2, MLCK-3, and MLCK4, were diluted in a running buffer to a final molar concentration of 100 nM, serially diluted 5 times, and each of the 5 dilutions was analyzed. The sample to be analyzed was prepared to have high purity and high concentration, enough to be diluted more than 100 times at minimum, thereby minimizing buffer effect. All analysis was done by using a wizard program, screening duplicates for each sample and a regeneration step was included in between each analysis step, so that the standard of experiment remains constant. The experimental results were analyzed by Biaevaluation software version 4.0. At this time, to determine the RU values (Fc2-Fc1 and Fc4-Fc3), the baseline was set to zero, the value measured at a buffer injection part (analyte, 0 nM) was subtracted from a whole sensorgram. Then, the resulting RU value was analyzed by a 1:1 binding model to determine a binding affinity. The factors to be analyzed include kₐ(M⁻¹s⁻¹), kd(s⁻¹), Kₐ(1/M), and KD(M). […] Equilibrium dissociation constant KD(M) was calculated by dividing kd with kₐ (kd/kₐ).

Assay [5] shares this target. The assay can be described thus: ELISA solution competition: antibody premixed with DLL4-His; blocks binding to plate-coated hNotch-1-hFc. The procedure:
Each well of a 96-well microtiter plate (Nunc-Immuno Plate, NUNC, Rochester, N.Y.) was coated with 100 μl of 500 ng/ml of hNotch-1-hFc protein (R&D Systems) (diluted in PBS) at 4° C. overnight, and non-specific binding sites were blocked with BSA for 2 hours.
The anti-DLL4 antibody (purified protein) on the 96-well microtiter plate was premixed with serial dilutions of antigen protein (DLL4 antigen, 600 ng/m) at an antibody concentration ranging from 0 nM to 140 nM. The antigen/antibody mixture was incubated for 30 minutes, and then transferred to a microtiter plate precoated with the DLL4 receptor hNotch-1 protein (50 ng/well) in order to measure free antibody. Then, the plate was incubated for 2 hours and washed five times with 0.05% tween 20-containing PBS. In order to detect the DLL4 antigen bound to the plate, an HRP-conjugated His anti-mouse IgG polyclonal antibody reagent (Roche applied science) was diluted at a ratio of 1:500, and the washed microtiter plate was treated with the diluted antibody reagent, and then allowed to react at 37° C. for 1 hour. Then, color development was performed using a colorimetric substrate (3,3′,5,5′-tetramethylbenzidine; Sigma-Aldrich Co.), and the enzymatic reaction was stopped using 0.5 mol/l of sulfuric acid. The amounts of antibodies required to achieve a 50% decrease in human DLL4-His bound to plate-coated Notch 1-Fc (IC₅₀) are shown in Table 1 below.

Residue numbers refer to the chain shown, from its start.

T1 sequence (Q9NR61 27-685): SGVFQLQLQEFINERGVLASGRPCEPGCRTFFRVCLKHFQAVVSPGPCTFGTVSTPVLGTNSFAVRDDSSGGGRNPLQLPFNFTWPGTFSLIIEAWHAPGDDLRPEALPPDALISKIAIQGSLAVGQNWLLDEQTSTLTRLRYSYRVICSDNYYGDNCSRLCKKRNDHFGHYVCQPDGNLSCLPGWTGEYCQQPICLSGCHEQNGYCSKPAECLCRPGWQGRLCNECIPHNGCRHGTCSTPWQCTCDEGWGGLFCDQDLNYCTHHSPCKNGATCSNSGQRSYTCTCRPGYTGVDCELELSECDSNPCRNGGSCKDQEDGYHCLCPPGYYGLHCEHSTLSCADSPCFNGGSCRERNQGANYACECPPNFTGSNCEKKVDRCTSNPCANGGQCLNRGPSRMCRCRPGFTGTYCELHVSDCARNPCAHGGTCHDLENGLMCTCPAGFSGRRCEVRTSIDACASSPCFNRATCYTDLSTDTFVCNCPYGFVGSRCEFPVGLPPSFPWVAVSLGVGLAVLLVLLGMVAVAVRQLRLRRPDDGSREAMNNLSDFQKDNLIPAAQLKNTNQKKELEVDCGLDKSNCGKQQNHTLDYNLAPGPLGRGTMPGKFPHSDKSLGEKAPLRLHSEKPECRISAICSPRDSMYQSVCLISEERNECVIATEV
T2 sequence (Q9NR61 27-522 limits assumed): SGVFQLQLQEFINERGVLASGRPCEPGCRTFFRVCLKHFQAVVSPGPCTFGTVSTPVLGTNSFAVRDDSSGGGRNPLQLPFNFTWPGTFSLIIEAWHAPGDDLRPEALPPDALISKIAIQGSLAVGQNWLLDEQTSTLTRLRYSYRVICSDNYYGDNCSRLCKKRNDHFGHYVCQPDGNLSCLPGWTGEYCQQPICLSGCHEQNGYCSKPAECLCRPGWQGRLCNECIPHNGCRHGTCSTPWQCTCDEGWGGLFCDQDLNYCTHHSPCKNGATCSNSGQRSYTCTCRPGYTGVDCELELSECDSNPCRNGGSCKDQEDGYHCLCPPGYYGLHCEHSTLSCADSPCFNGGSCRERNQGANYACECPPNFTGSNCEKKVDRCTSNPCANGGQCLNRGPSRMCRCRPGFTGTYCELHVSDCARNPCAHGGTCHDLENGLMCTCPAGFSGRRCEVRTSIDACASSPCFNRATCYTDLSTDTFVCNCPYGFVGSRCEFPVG

B1: MLCK-4 (antibody, V domains shown)
VH: EVQLLESGGGLVQPGGSLRLSCAASGFTFSNYAMSWVRQAPGKGLEWVSWIYHGGGDTYYADSVKGRFTISRDNSKNTLYLQMNSLRAEDTAVYYCARGPNYTFGKPFDYWGQGTLVTVSS
VL: QSVLTQPPSASGTPGQRVTISCRGSPSNIGNNTVYWYQQLPGTAPKLLIYSDSQRPSGVPDRFSGSKSGTSASLAISGLRSEDEADYYCGSWDYSLSAYVFGGGTKLTVL
notes: Human monoclonal antibody from a phage scFv library; Only the variable regions are tied to the clone; In flow cytometry it was detected with an anti-human IgG Fc-specific antibody, so it carries a human Fc; also called anti-DLL4 antibody
Take B1: the “degree of binding to DLL4 antigen compared to the control group” value (shortened to “degree … compared to the control group”) in assay [1] is 52.5%. In assay [2], this molecule gave a Ka of 469000 M⁻¹, a koff of 0.00474 s⁻¹ and a kon of 2220 M⁻¹ s⁻¹. In assay [3], the “EC50 (read off the curve)” value was approximately 0.2 pM. The same molecule had a Kd in assay [4] of 2130 nM. For the same molecule, the IC50 in assay [5] came to 3.72 nM.

B2: MLCK-1 (antibody, V domains shown)
VH: EVQLLESGGGLVQPGGSLRLSCAASGFTFSDYAMSWVRQAPGKGLEWVSWIYSDDGNKYYADSVKGRFTISRDNSKNTLYLQMNSLRAEDTAVYYCARADPPFDYWGQGTLVTVSS
VL: QSVLTQPPSASGTPGQRVTISCTGSSSNIGSNNVSWYQQLPGTAPKLLIYSDNNRPSGVPDRFSGSKSGTSASLAISGLRSEDEADYYCATWDSSLNGYVFGGGTKLTVL
notes: as for B1
For the molecule B2, the “degree … compared to the control group” value in assay [1] was found to be 47.8%. In assay [2], this molecule had a Ka of 3.8e+06 M⁻¹, a koff of 0.0169 s⁻¹ and a kon of 64100 M⁻¹ s⁻¹. Moreover, the “EC50 (read off the curve)” value in assay [3] is approximately 0.1 pM. The molecule also had an equilibrium dissociation constant (Kd) in assay [4] of 263 nM. This molecule also displayed an IC50 in assay [5] of 1.32 nM.

B3: MLCK-2 (antibody, V domains shown)
VH: B2 VH with D54G, D55S, P101W
VL: B1 VL with R23T, P26S, N31S, T33D, Y35T, S51A, Q54K, S91T
notes: Human monoclonal antibody from a phage scFv library; Only the variable regions are tied to the clone; In flow cytometry it was detected with an anti-human IgG Fc-specific antibody, so it carries a human Fc; also called MLCK-2 mAb; anti-DLL4 antibody
B3: the “degree … compared to the control group” value in assay [1] was 59%. In addition, in assay [2], the Ka is 5.86e+08 M⁻¹, the koff was found to be 0.000232 s⁻¹ and the kon came to 136000 M⁻¹ s⁻¹. Also, the concentration for a half-maximal effect (EC50 (read off the curve)) in assay [3] is approximately 0.04 pM. Moreover, the Kd in assay [4] turned out to be 1.71 nM. In assay [5], this molecule registered an IC50 of 0.41 nM.

B4: MLCK-3 (antibody, V domains shown)
VH: B2 VH with S53Y, D55S, N57S, P101L
VL: B2 VL with T23S, S31N, N33A, S35T, N54H, A90G, S94A, N97S
notes: as for B1
B4: the “degree … compared to the control group” value in assay [1] was determined as 52.9%. Also, in assay [2], the Ka was determined as 1.44e+08 M⁻¹, the dissociation rate constant (koff) is 0.00359 s⁻¹ and the association rate constant (kon) was 516000 M⁻¹ s⁻¹. In addition, in assay [3], the “EC50 (read off the curve)” value was approximately 0.05 pM. In assay [4], this molecule came in with a dissociation constant (Kd) of 6.96 nM. For the same molecule, in assay [5], the 50% inhibitory concentration (IC50) worked out at 0.38 nM.
